The record followed here is the nanobody polyreactivity screen of Harvey et al. (2022).

The series can be described thus: yeast display, Sf9 membrane polyspecificity reagent, FACS + sequencing; frameworks hold sequencing errors. An outline of the steps:
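Nanobodies from a synthetic yeast display library (Saccharomyces cerevisiae BJ5465), induced 36–48 hours with galactose, were stained 1 hour at 4 °C with 10% biotinylated, detergent-solubilized Sf9 membrane reagent, enriched on streptavidin microbeads, then FACS-sorted. Anti-HA (expression) and streptavidin (reagent binding) fluorescence set low and high (top ~1%) gates. Polyreactivity labels come from the gate of origin. Genes were colony-PCR amplified, MiSeq 2 × 250 sequenced and filtered by CDR length.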
With “QVQLVESGGGLVQAGGSLRLSCAASGFTFSGNALGWYRQARGKERELVAAISVGGGRTYYADSVKGRFTISRDNAKNTVYLQMNSLKPEDTAVYYCARYTRRSETWRYDYWGQGTQVTVSS”, the “polyreactivity (PSR sort gate)” value is “high polyreactivity”.
With “QVQLVESGGGLVQAGGSLRLSCAASGFTFSGYDMGWYRQAPGKERELVAGISSGGVSTTYADSVKGRFTISRDNAKNTVYLQMNSLKPEDTAVYYCSTSGPQYYSRNFDYWGQGTQVTVSS”, the “polyreactivity (PSR sort gate)” value is “low polyreactivity”.
In the case of “QVQLVESGGGLVQAGGSLRLSCAASGFTFSHYAMGWYRQAPGKERELVAAISRRGSSTYYADSVKGRFTISRDNAKNTVYLQMNSLKPEDTAVYYCNVERLTGVWYYQRPSQDGYWGQGTQVTVSS” it was “high polyreactivity”.
The value for “QVQLVESGGGLVQAGGSLRLSCAASGFTFSKYAMGWYLQAPGKERELVAAISRRGGSTYYADSVKGRFTISRDNAKNTVYLQMNSLKPEDTAVYYCAARYSVGTGYGYWGQGTQVTVSS” was “high polyreactivity”; that for “QVQLVESGGGLVQAGGSLRLSCAASGFTFSKYGMGWYRQAPGKERELVAAISSGGSTHYADSVKGRFTISRDNAKNTVYLQMNILKPADTAVYYCNASSKFAKPQRYYWGQGTQVTVSS” was “low polyreactivity”; that for “QVQLVESGGGLVQAGGSLRLSCAASGFTFSLYAMGWYRQAPGKERELVASIDSDGVSTYYADSVKGRFTISRDNAKNTVYLQMNSLKPEDTAVYYCAADLWWGYISGPVRGRGYYWGQGTQVTVSS” was “low polyreactivity”.
On to “QVQLVESGGGLVQAGGSLRLSCAASGFTFSLYAMGWYRQAPGKERELVASISRSGGSTYYADSVKGRFTISRDNAKNTVYLQMNSLKPEDTAVYYCAARWRPYKYDSWGQGTQVTVSS”, for which the “polyreactivity (PSR sort gate)” value is recorded as “high polyreactivity”.
Consider “QVQLVESGGGLVQAGGSLRLSCAASGFTFSNYTMGWYRQAPGKERELVAAIRSSGGRTYYADSVKGRFTISRDNAKNTVYLQMDSLKPEDTAVYYCNAEYRTDGGYWVQGTQVTVSS”, for which the “polyreactivity (PSR sort gate)” value is “low polyreactivity”.
On to “QVQLVESGGGLVQAGGSLRLSCAASGFTFSPNAMRWYRQAPGKERELVAAIDWSGDRTYYADSVKGRFTISRDNAKNTVYLQMNSLKPEDTAVYYCAADIRDPGVPMDYWGQGTQVTVSS”, for which the “polyreactivity (PSR sort gate)” value is on record as “low polyreactivity”.
Regarding “QVQLVESGGGLVQAGGSLRLSCAASGFTFSRYAMGWYRPAPGKERELVAAITSSGGSTYYADSVKGRFTISRDNAKNTVYLQMNSLKPEDTAVYYCAAGKYTASNGYGYWGQGTQVTVSS”, the “polyreactivity (PSR sort gate)” value is “high polyreactivity”.
For “QVQLVESGGGLVQAGGSLRLSCAASGFTFSSNAMGWYRQAPGKEREFVAAISFNSTSTYYADSVKGRFKISRDNAKNTVYLQMNSLKPEDTAVYYCAADVPRVQSEPEYDYWGQGTQVTVSS”, the “polyreactivity (PSR sort gate)” value was “low polyreactivity”.
Take “QVQLVESGGGLVQAGGSLRLSCAASGFTFSSYAMGWYRQAPGKERELDAAITRNGGSTYYADSVKGRFTISRDNAKNTDYLQMNSLNPEYTAVYNCAAQYPRQRYGYYWPYYKYYYWGHGTQVTVSS”: the “polyreactivity (PSR sort gate)” value is “high polyreactivity”.
With “QVQLVESGGGLVQAGGSLRLSCAASGFTFSSYAMGWYRQAPGKERELVAAISGSGDRTRYADSVKGRFTISRDNAKNTVYLQMNSLKPEDTAVYYCAAKSPGSQTAMDYWGQGTQVTVSS”, the “polyreactivity (PSR sort gate)” value was “high polyreactivity”.
For the sequence “QVQLVESGGGLVQAGGSLRLSCAASGFTFSSYAMGWYRQAPGKERELVAAITISGGRTYYADSVKGRFTISRDNAKNTVYLQMNSLKPEDTAVYYCAALYVEGQNHYGYWGQGTQVTVSS”, the “polyreactivity (PSR sort gate)” value is “high polyreactivity”.
Turning to “QVQLVESGGGLVQAGGSLRLSCAASGFTFSSYAMGWYRQAPGKERELVARISSGSSTNYADSVKGRFTISRDNAKNTVYLQMNSLKPEDTAVYYCAARYTARRQSYGYWGQGTQVTVSS”, the “polyreactivity (PSR sort gate)” value was “high polyreactivity”.
In the case of “QVQLVESGGGLVQAGGSLRLSCAASGFTFSTYAMGWYRQAPGKEREFVAAISRGGTRTYYADSVKGRFTISRDNAKNTVYLQMTSLKPEDTAVYYCAARSKARNGYDYWGQGTQVTVSS” it was “high polyreactivity”; in that of “QVQLVESGGGLVQAGGSLRLSCAASGFTFSTYAMGWYRQAPGKERELVAAISGSGGRTYYADSVKGRFKISRDNAKNTVYLQMNSLKPEDTAVYYCAALTYSTVLGFDYWGQGTQVTVSS”, “high polyreactivity”; in that of “QVQLVESGGGLVQAGGSLRLSCAASGFTFSWYAMGWYRPAPGKERELVAAISWDGDSTYYADSVKGRFTISRDNAKNTVYLQMNSLIPEDTAVYYCAADFYYYWDGYDYWGQGTQVTVSS”, “high polyreactivity”.
In the case of “QVQLVESGGGLVQAGGSLRLSCAASGFTFSWYAMGWYRQAPGKERELVAAISRRGGSTYYADSVKGRFTISRDIAKNTVYLQMNSLKPEDTAVYYCNAALTYDYNYWGQGTQVTVSS” it was “high polyreactivity”; in that of “QVQLVESGGGLVQAGGSLRLSCAASGFTFSWYAMGWYRQAPGKERELVAAITSGGSTYYADSVKGRFTLSRDNAKNTVYLQMISLKPEDTAVYYCNKAFASIAPVWSGYDFWGQGTQVTVSS”, “low polyreactivity”.
The value for “QVQLVESGGGLVQAGGSLRLSCAASGFTFSYYAMGWYRQAPGHEREFVAAIIWNGTSTYYADSVKGRFTISRDNAKNTVYLQMNSLKPEDTAVYYCAAYDVHDYDYWGQGTQVTVSS” was “high polyreactivity”; that for “QVQLVESGGGLVQAGGSLRLSCAASGFTFSYYAMGWYRQAPGKERELVAAISFGGSTYYADSVKGRFTISRDNAKNTVYLQMNSLKPEDTAVYYCAVYGDSYWGAYYYSDGYWGQGTQVTVSS” was “low polyreactivity”.
For “QVQLVESGGGLVQAGGSLRLSCAASGFTFSYYAMGWYRQAPGKERELVAAISWSGTATYYADSVKGRFTISRDNAKNTVYLQMNSLKPEDTAVYYCAAGYSASGKVDYRGQGTQVTVSS”, the “polyreactivity (PSR sort gate)” value was “high polyreactivity”.
In the case of “QVQLVESGGGLVQAGGSLRLSCAASGFTFSYYAMGWYRQAPGKERELVAAITSSGARTYYADSVKGRFTISRDNAKNTVYFQMNSLKPEDTAVYYCAAEVFRTRTWEYYYWGQGTQVTVSS” it was “high polyreactivity”.
In the case of “QVQLVESGGGLVQAGGSLRLSCAASGFTFSYYAMGWYRQAPGKERELVASISRSGNTYYADSVKGRFTISRDNAKNTVYLQMNSLKPEDTAVYYCAADQVYASTHVWGYDYWGQGTQVTVSS” it was “high polyreactivity”; in that of “QVQLVESGGGLVQAGGSLRLSCAASGFTFSYYAMGWYRQAPRKERELVAAISGGGGTNYADSVKGRFTISRDNAKNTVYLQMNSLKPEDTAVYYCATDQFTQPSHRRDYWGQGTQVTVSS”, “low polyreactivity”.
As for “QVQLVESGGGLVQAGGSLRLSCAASGFTFSYYDMGWYRQAPGKERELVAAITQSGGSTYYADSVKGRFTISRDNAKNTVYLQMNSLKPEDTEVFYCAALTYRWSARDYWGQGTQVTVSS”, the “polyreactivity (PSR sort gate)” value is recorded as “high polyreactivity”.
With “QVQLVESGGGLVQAGGSLRLSCAASGFTFTAYAMGWYRQAPGKERELVAAISYRGGRTNYAYSVKGRFTISRDYAKYTVYLQMNSLKPEDTAVYYCAARPRISTREMDYWGQGTQVTVSS”, the “polyreactivity (PSR sort gate)” value is recorded as “high polyreactivity”.
The value for “QVQLVESGGGLVQAGGSLRLSCAASGFTFTAYDMGWYRQAPGKERELVAAISGSGGTTYYADSVKGRFTISRDNAKNTVYLQMNSLKPEDTAVYYCAVDVPSPGGYDSWGQGTQVTVSS” was “low polyreactivity”; that for “QVQLVESGGGLVQAGGSLRLSCAASGFTFTENVMGWYRQAPGKEREFVAAITYIGGRTYYADSVKGRFTISRDNAKNTVYLQMNSLKPEDTAVYYCAADWAYYVASYLYYTFAYWGQGTQVTVSS” was “low polyreactivity”.
